Laboratory results taken from the nanobody polyreactivity screen of Harvey et al. (2022).

Experiment: yeast display, Sf9 membrane polyspecificity reagent, FACS + sequencing; frameworks hold sequencing errors
Procedure, shortened: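 Nanobodies from a synthetic yeast display library (Saccharomyces cerevisiae BJ5465), induced 36–48 hours with galactose, were stained 1 hour at 4 °C with 10% biotinylated, detergent-solubilized Sf9 membrane reagent, enriched on streptavidin microbeads, then FACS-sorted. Anti-HA (expression) and streptavidin (reagent binding) fluorescence set low and high (top ~1%) gates. Polyreactivity labels come from the gate of origin. Genes were colony-PCR amplified, MiSeq 2 × 250 sequenced and filtered by CDR length.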

In the case of “QVQLVESGGGLVQAGGSLRLSCAASGRTLVRNVMGWYRQAPGKERELVAAISRSGGSTYYADSVKGRFTISRDNAKNTVYLQMNSLKPEDTAVYYCAAATKSNGAPIFDSWGQGTQVTVSS”, the “polyreactivity (PSR sort gate)” value was “high polyreactivity”.

With “QVQLVESGGGLVQAGGSLRLSCPASGRILPRNAMGWYRQAPGKERELVAGISSDGSTNYADSVKGRFTISRDNAKNTVYLQMNSLKPEDTAVYYCAADGVYDPNLYGYWGQGTQVTVSS” the “polyreactivity (PSR sort gate)” value was “low polyreactivity”.

With “QVQLVESGGGLVQAGGSLRLSCAASGTTFGINAMGWYRQAPGKERELVASITRRGGSTYYADSVKGRFTISRDNAKNTVYLQMNSLKPEDTAVYYCNKTYRYGTPLYDYWGQGTQVTVSS” the “polyreactivity (PSR sort gate)” value was “high polyreactivity”.

For “QVQLVESGGGLVQAGGSLRLSCAASGRIFYVYAMGWSRQAPGKERELVAAITSGGRTYYADSVKGRFTISRDNAKNTVYLQMNSLKPEDTAVYYCAARASSYNYWGQGTQVTVSS”, the “polyreactivity (PSR sort gate)” value was “high polyreactivity”.

For “QVQLVESGGGLVQAGGSLRLSCAASGSIFIQYAMGWYRQAPGKERELVAAINTSGGRTYYADSVKGRFTISRDNAKNTVYLLMNSLKPEDTAVYYCNADHFGWPWRVRILEDDYWGQGTQVTVSS”, the “polyreactivity (PSR sort gate)” value was “low polyreactivity”.

With “QVQLVESAGGLVQAGGSHRLSCAASVLIFRYYAMGWFRQAPGKEWELFAAISNSGGGTYYADSVKGRFTISRDNAKNTVYLLMNSLIPVDTAVYYCAARHAFCFRFVSWGLGTQVTVSS” the “polyreactivity (PSR sort gate)” value was “high polyreactivity”.

In the case of “QGQLVESGGGLVQAGGSLRLRCAASGRTFYTYAMGWYRQAPGKERELVATITSGGSTYADSVKGRFTISRDNAKNTVYLQMNSLKPEDTAVYYCARGYYKPSVGKSKRVGGNYWGQGTQVTVSS”, the “polyreactivity (PSR sort gate)” value was “high polyreactivity”.

In the case of “QVQLVESGGGLVQAGGSLRLSCAASGIIFVSYDMGWYRQAPGKERELVAAINRGGRTYYADSVKGRFTISRDNAKNTVYLQMNSLKPEDTAVYYCAAQFHFRPFSWTYDYWGQGTQVTVSS”, the “polyreactivity (PSR sort gate)” value was “high polyreactivity”.

For “QVQLVESGGGLVQAGGRLRLICAASGFNFKFYALGWYRQAPGKERELVAAITASSGRTYYADSVKGRFTISRDNAKNTVFLQMNSLKPEDTAVYYCAALGITYGRYDYWGQGTQVTVSS”, the “polyreactivity (PSR sort gate)” value was “high polyreactivity”.

For “QVQLVESGRGLVQAGGSLRLSCAASGRIFSSNAMVWYRQAPGKERELVAAISQGGGSTYYADSVKGRFTISRDNAKITVYLQMNSLIPEDTAVYYCAAETGYSGYDDSAYEYWGQGTQVTVSS”, the “polyreactivity (PSR sort gate)” value was “low polyreactivity”.

For “QVQVVESGGGLVQAGGSLRLSCAASGFIFSFYAMGWYRQAPGKERELVAAINWSGGSTYYADSVKGRFTISRDNAKNTVYLQMNSLKPEDTAVYYCNAVQYFSIPKPVWLFVLRYYYWGQVTQVTVSS”, the “polyreactivity (PSR sort gate)” value was “low polyreactivity”.

For “QVQLVESGGGLVQAGGSLRLSCAASGRILVSYAMGWYRQAPGKERELVAAISRSGGSTYYADSVKGRFTISRDNAKNSVYLQMNSLKPEDSAVYYCNVYRFSRYDYWGQGTQVTVSS”, the “polyreactivity (PSR sort gate)” value was “high polyreactivity”.

In the case of “QVQLVESGGGVVHAGGSLRLSCAASGLIFRYYAVGGYRPAPGKERELVARISTRGGSTYYADSVKGRFTISRDNAKNTVYLPMNSLKPEDTAVYYCAAVNGLYYHKYGYYWGQGTQVTVSS”, the “polyreactivity (PSR sort gate)” value was “high polyreactivity”.

With “QVQLVESGGGLVQAGGSLRLSCAASGITFKRYAMGWYRQAPRKERELVAAITTSGGSTYYADSVKGRFTNSRDNAKNTVYLLMNSLKPEDTAVNYCNAEDYWGKYYYWGQGTQVTVSS” the “polyreactivity (PSR sort gate)” value was “low polyreactivity”.

In the case of “QVQLVESGGGLVQAGGSLRLSCAASGSTFTANAMGWYRQAPGTERELVAAISRSGGSTYYADSVKGRFTISRDNAKYTVYLQLNSLKPEDTAVYYCAAECPLFSPPDGEDYWGQGTLVTVSS”, the “polyreactivity (PSR sort gate)” value was “low polyreactivity”.

In the case of “QVQLVESGGGLVQAGGSLRLSCAASGRTFSVYAMGWYRQAPGKERELVAVISYRDGTTYYADSVKGRFTISRDNAKNTVYLQMNSLKPEDTAVYYCAADFFSDFDWGQGTQVTVSS”, the “polyreactivity (PSR sort gate)” value was “low polyreactivity”.

For “QVQLVESGGGLVQAGGSLRLSCADSGRIFRSNAMGWYRQAPGKERELVATITSSGGRTYYADSVKGRFTISRDNAKNSVYLQMNRLKPEVSAVYYCNAQQRTRGQKAQWVRDEYWGQGTQVTLSS”, the “polyreactivity (PSR sort gate)” value was “low polyreactivity”.

With “QVQLVESGGGLVQAGGSLRLSCAASGRIFYHYAMGWYRQAPGTERELVAAINSSGGSTHYADSVKGRFTISRDNAKNTVYLQMNSLKPVDTAVYYCAADGYWRDYSGYWDYYYIYDYWGQGTQVTVSS” the “polyreactivity (PSR sort gate)” value was “low polyreactivity”.

In the case of “QVQLVESGGGLVQAGGSLRLSCAASGLTFRYYSMGWYSQAPGKERELVASISWSGASTYYADSVKGRFTISRDNAKNTVYLQMNSLKPEDTGVYYCNAGYYGSYDYWGQGTQVTVSS”, the “polyreactivity (PSR sort gate)” value was “high polyreactivity”.

For “QVQLVESGGGLVQAGGSLRLSCAASGSILAGNTMVSYRQAPGKERELVATISKRGGSTYYADSVKGRFTISRDNAKNTVYLQMNSLKPEDTAVYYCAAALRAKHYYWGQGTQVTVSS”, the “polyreactivity (PSR sort gate)” value was “high polyreactivity”.

In the case of “QVQLVESGGGLVQAGGSLRLSCAASGIIIKNYSMGWYRQAPGKEREFVAAISYSGTNTYYADSVKGRFTISRDYAKNTVYLQMNSLKPEDTAVYYCARRKTVVYLAGGRRDYYSWGQGTQVTVSS”, the “polyreactivity (PSR sort gate)” value was “high polyreactivity”.

In the case of “QVHLVESWGCLVQAGGSLRLSCAASGSTFTGYAMGWYRHAPGKESEMVAAISRSGGSTSAADSVKGRFTISRDNAKNTVYLQMNSLKPEDTAVYYCAAQVQGTTRDKQRGGIGELDYWGQGTQVTVSS”, the “polyreactivity (PSR sort gate)” value was “low polyreactivity”.

With “QVQLVESGGGLVQAGGSLRLSCAATGSIFYFYTMGWYRQAPGKERELVAAIDWSSGSTYYADSVKGRFTISRDNAKNTVYLQMNSLKPEDTAVYYCNARDYWTGRHDYWGQGTQVTVSS” the “polyreactivity (PSR sort gate)” value was “low polyreactivity”.

For “QVQLVESGGGLVQAGGSLRLSCAASGSIFNIYAMGWDRQAPGKERELVAAIRWTGGSTYYADSVKGRFTISRDTAKNTVDLQMTSLKPEATAVYYCAARTSRGGHYYWGPGTQVTVSS”, the “polyreactivity (PSR sort gate)” value was “high polyreactivity”.

With “QVQLVESGGGLVQAGGSLRLSCAASGSTFGKYVMGWYRQAPGKERELVAAISRSGGSTYYADYVKGRFTISRDNAMNTVYLQMNSLKPEDTAVYYCNAVVYFVGDFDYWGQGTQVSVSS” the “polyreactivity (PSR sort gate)” value was “high polyreactivity”.

With “QVQLVESGGGLVQAGGSLRLSCAASGLTFQLYAMGWYRQAPGKERELVAAISGSGGRTYYADSVKGRFTISRDNGKNTVYLLMNRLKPEDTAVYYCAARPGSGRSYTSDYWGQGTQVTVSS” the “polyreactivity (PSR sort gate)” value was “high polyreactivity”.

For “QVQLVESGGGLVQAGGSLRLSCAASGFTFYSNAMGWYRQAPGKERELVAAITWRGGSTNYADSVKGRFTISRDNAKNTVYLHMNSLKPEETAVYYCAAVTYWFWPGMDYWGQGTEVTVSS”, the “polyreactivity (PSR sort gate)” value was “low polyreactivity”.

For “QVQLVESGGGLVQAGGSLRLSCAASGGTFGYNTLGWYRQAPGKERELVAAITGSGGRTYYADSVKGRFTISRDNAKNTVYLQMNSLKPEDTAVYYCNALTYPDYGYWGQGTQVTVSS”, the “polyreactivity (PSR sort gate)” value was “low polyreactivity”.

With “QVQLVESGGGLVQAGGSLRLSFAASGFTFWKNAMGWYRQAPGKERELVATISNGGNTYYADSVKGRFTISRDNAKNTVYLQMNSLKPEDTAVYYCATGYPSDLGREFDYWGQGIQVTVSS” the “polyreactivity (PSR sort gate)” value was “high polyreactivity”.

With “QVQLVESGGGLVQAGGSLRLSCAASGRIFSHYAMGWYRQAPGKERELVAAITWSGGRTYYADSVKGRFTISRDNAKNTVYLQMNSLKPEDTAVYYSAADREARYPVEYGYWGQGTQVTVSS” the “polyreactivity (PSR sort gate)” value was “low polyreactivity”.

For “QVQLVESGGGLVQAGGSLRVSCAASGSIFHFYTMGWYRQAPGKERELVAAISSTGSTNYADSVKGRFTISRDNAKNTVYLQMNSLKPEDTAVYYCAAVGTYLAGYQFDYWGQGTQVTVSS”, the “polyreactivity (PSR sort gate)” value was “low polyreactivity”.

With “QVQLVESGGGLVQAGGSLRLSCAASGRIFGDNVMGWYRQPPGKERELVAAIRKSGGNTYYADSVKGRFTISRDNAKNTVYLHMNSLKPEDTAVYYCAARYPYLYGFVEYDYWGQGTQVTLSS” the “polyreactivity (PSR sort gate)” value was “low polyreactivity”.

For “QVQLVESSGGLVQAGGSLRLSCSASGRTFVWYDMGWYRQAPGKERELVAAITKRGTSTYYADSVKGRFTISRDNAKNTVYLQMNSLKPEDTAVYYCAVEYIYWFHCRSSFIYDYWGQGTQVTVSS”, the “polyreactivity (PSR sort gate)” value was “low polyreactivity”.

With “QVQLVESGGGLVQAGGSLRLICAASGSTFDYYAMGWYRQAPGKERELVAAISRRGGNTYYADSVKGRFTISRDNAKNTVYLQMNSLKQEDTAVYYCAAQTYKWYDWGHGTQVTVSS” the “polyreactivity (PSR sort gate)” value was “high polyreactivity”.

For “QVQRVESGGGLVQAGGSLRLSCAASGSTIAKNAMGWYRQAPGKERELVAAISRGGNTYYADSVKGRFTISRDNAKNTVYLQMNSLKPEDTAVYYCAARYLYRSLKMDYWGQGTQVTVSS”, the “polyreactivity (PSR sort gate)” value was “high polyreactivity”.

In the case of “QVQLVESGGGEVQAGGSLRLSCAASGSIFRFYTMGWSRQAPGTERELVATLARGGSTNYADSVKGRFTISRDTAKNTVYLQMNSLKPEDTAVYYCNVAALYSTYCGYGYDYSGQGTQVTVSS”, the “polyreactivity (PSR sort gate)” value was “high polyreactivity”.

For “QVQLVESGGGLVQAGGSLRLSCAASGLTLAWYAMGWYRQAPGKERELVAAISWSGDSTYYADSVKGRFTISRDNAKNTVYLQMNSLKPEDTEVYYCATRVYGGYGYWGQGTQVTVSS”, the “polyreactivity (PSR sort gate)” value was “high polyreactivity”.

With “QVQLVESGGGLVQAGGSLRLSCAASGSILYVNAMGWYTQEPGKERELVAAITVSGGSTYYADSVKGRFTISRDNAKNTVYLQMNSLKPEDTAVFYCAAPALGNYFYGYDYCGQGTQVTVSS” the “polyreactivity (PSR sort gate)” value was “low polyreactivity”.

For “QVQLVESGGGLVQAGGSLRLSCAASGITFRGNAMGWYRQAPGKERELVATISSGGITNYADSVKGRFTISRDNAKNTVYLQMNSLKPEDTAVYDCNADNAYGFYRVKYEGYYWGQGTQVTVSS”, the “polyreactivity (PSR sort gate)” value was “low polyreactivity”.

With “QVQLLESGGGLVKAGGSLRLTCADSGRTLYRYAMGWYRQAPGKERELVAAINQSGGRTYYADSVKGRFTISRDNAKNTVYLQMNSLKPDDTAVYYCNTASSRAFLTHGRYGRSDYWGQGTQVTVSS” the “polyreactivity (PSR sort gate)” value was “high polyreactivity”.

In the case of “QVQQQESGGGLVQAGGSLRLSCAASGNIFRFTRMGWYRQGPGQVREFVAGIGDGSTTYYADSVKGRFTISRDNAKNTVHLQMNSQKPEDTAVYSCAVGDSGFVHHPYWGQGTQVTVSS”, the “polyreactivity (PSR sort gate)” value was “high polyreactivity”.

For “QVQLVESGGGLVQAGGSLRLSCAASGRIFTRYTMGWYRQAPGKERELVASITSSGSSTYYADSVKGRFTISRDNAKNTVYLQMNSLKPEDTAVYYCAARSRLRYLYDYWGQGTQVTVSS”, the “polyreactivity (PSR sort gate)” value was “high polyreactivity”.

In the case of “QVQLVESGGGLVQAGGSLRLSCAASGRTSVRNAMGWYRQAPGKERELVAAISNGGRTNYADSVKGRFTISRDNAKNTVYLQMNSLKPEDTAVYYCAARGFWLYYHGGVRSGYDYWGQGTQVTVSS”, the “polyreactivity (PSR sort gate)” value was “high polyreactivity”.
